Assay results taken from patent US20210246209A1 (SHANGHAI JUNSHI BIOSCIENCES, published 2021).
Where a chain is given by its changes, count along the chain named. Where two headings read alike, the source gives them in different places. Values belong to the binder of their own block, whether it stands above or below them.

Key:
[1] = molecular target: T1, hBTLA (human BTLA protein coated on plates or coupled to a chip) (human, UniProt Q7Z6A9 31-157, limits assumed); experiment: ELISA, hBTLA coated at 0.5 µg/mL, anti-human IgG4-HRP detection
T1 sequence (looked up): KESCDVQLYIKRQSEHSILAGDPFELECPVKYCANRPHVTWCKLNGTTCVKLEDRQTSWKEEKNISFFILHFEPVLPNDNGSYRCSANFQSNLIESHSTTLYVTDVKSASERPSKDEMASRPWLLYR
Procedure: (§1) The binding specificity of the humanized antibodies to hBTLA was determined by conventional ELISA method. A 96-well microplate was coated with 0.5 μg/mL hBTLA and incubated at 37° C. for 60 minutes. The solution in wells was then discarded, and the wells were washed 3 times with washing buffer, and blocked for 60 minutes with PBS containing 2% BSA. After being washed 3 times with washing buffer, the wells were added with gradiently-diluted antibodies, incubated at 37° C. for 60 minutes, and washed 3 times with washing buffer before adding a HRP-labeled mouse anti-human IgG4 secondary antibody diluted at 1:10000. The mixture was incubated at 37° C. for 1 hour, washed three times with washing buffer, and added with 100 μL of TMB substrate solution for color development at room temperature for 30 minutes, then the reaction was stopped with 100 μL of 2M hydrochloric acid solution and the absorbance was read at 450 nm.
The humanized antibodies hu17, hu18, and hu19 can specifically bind to hBTLA.

murine BTLA = molecular target: T2, murine BTLA (murine, UniProt Q7TSA3 30-183, limits assumed); experiment: sheet shows OD:450nm against Log:ng/mL (ELISA-type readout); the text describes a Fortebio/biosensor assay with BTLA coupled to a chip
T2 sequence (looked up): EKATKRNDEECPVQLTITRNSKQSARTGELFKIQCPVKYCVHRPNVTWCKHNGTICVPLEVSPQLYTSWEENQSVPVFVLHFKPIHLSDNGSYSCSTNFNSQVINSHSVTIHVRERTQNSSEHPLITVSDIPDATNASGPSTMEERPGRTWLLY

[2] = molecular target: T3, human BTLA expressed on cells (human, UniProt Q7Z6A9 31-289); experiment: FACS on 293F cells expressing hBTLA
T3 construct: whole, on cells
Procedure: The humanized anti-BTLA antibodies were determined for their binding ability to hBTLA expressed on cells using cell-based flow cytometry (FACS). […] Then the cells were mixed with 50 μL of antibody diluent at different concentrations (initial concentration: 10 μg/mL, 3-fold titration), and incubated at room temperature for 30 minutes. After being washed with an FACS buffer twice, the cells were added with 100 μL of goat anti-human IgG-PE antibody, incubated for 30 minutes away from light, and assayed by FACS after two washes with an FACS buffer. The washed cells were resuspended in 4° C. buffer containing propidium iodide (PI) and 0.02% sodium azide that prevents receptor internalization and analyzed by flow cytometry. Viable cells were gated on the basis of PI positive cells being excluded from the FSC/SSC gate and their geometric mean fluorescence intensity was measured. The data were analyzed using a sigmoidal dose-response model within Prism™ software.
The humanized antibodies hu17, hu18, and hu19 can effectively bind to hBTLA on 293 cells.

[3] = molecular target: T4, recombinant protein of human BTLA extracellular domain (hBTLA-ECD-FC) (human, UniProt Q7Z6A9 31-157, biotin-labeled in the FACS blocking assays (site not stated)); experiment: FACS, blocking of biotin-labeled hBTLA binding to hHVEM-293F cells
T4 construct: extracellular domain; also called BTLA-Fc; biotin-labeled hBTLA; not shown: Fc of the self-constructed HX1-FC expression plasmid
T4 sequence (looked up): T1 sequence (looked up)
Procedure: (§2) Then the cells were mixed with previously biotin-labeled hBTLA (1 μg/mL) protein, incubated at 4° C. for 15 minutes, followed by mixing with 50 μL of humanized antibody diluent (initial concentration: 5 μg/mL, 3-fold titration) at different concentrations, and incubating at room temperature for 30 minutes. After being washed with an FACS buffer twice, the cells were added with 100 μL of goat anti-human IgG-PE antibody, incubated for 30 minutes away from light, and assayed by FACS after two washes with an FACS buffer. The washed cells were resuspended in 4° C. buffer containing propidium iodide (PI) and 0.02% sodium azide that prevents receptor internalization and analyzed by flow cytometry. Viable cells were gated on the basis of PI positive cells being excluded from the FSC/SSC gate and their geometric mean fluorescence intensity was measured. The data were analyzed using a sigmoidal dose-response model within Prism™ software.
The […] antibodies hu17, hu18, and hu19 can effectively block the binding of human BTLA to HVEM on the cell surface.

[4] = molecular target: T4, recombinant protein of human BTLA …; experiment: SPR, Biacore T200, BTLA-Fc amine-coupled to chip, antibody as analyte, 1:1 fit
Procedure: The assay was carried out using a Biacore T200 instrument (GE Healthcare). Series S CMS chip was loaded on the instrument and the system buffer used was HBS-EP+(10 mM HEPES, pH 7.4, 150 mM NaCl, 3 mM EDTA, 0.05% surfactant P20). The BTLA-Fc antigens were coupled in a chip detection channel: injecting a mixed solution of 400 mM EDC and 100 mM NHS at 10 μL/min for 420 s to activate the surface of the chip, diluting the BTLA-Fc antigens in a 10 mM sodium acetate/acetic acid (pH 5.5) buffer to a final concentration of 20 μg/mL and injecting at 10 μL/min for coupling, and injecting a 1M ethanolamine-hydrochloric acid solution (pH 8.5) at 10 μL/min for 420 s for blocking.
Antibodies were diluted in a 2-fold gradient with Biacore system buffer for a total of 6 concentration points. Concentration gradients were 24 nM, 12 nM, 6 nM, 3 nM, 1.5 nM and 0.75 nM, with 24 nM being a replicate. Data were analyzed using Biacore T200 Evaluation Software (version no. 3.0, GE Healthcare). Data were fitted using a model of 1:1 Binding. The kinetic constants of the binding of the antibodies to the antigens, namely, the association rate constant ka (1/Ms), dissociation rate constant kd (1/s) and the affinity constant kd (M), were obtained by fitting, and the results are shown in Table 8.

[5] = molecular target: T3, human BTLA expressed on cells; experiment: cell-based or functional assay
[6] = molecular target: recombinant human FcγRI (CD64) (human) (UniProt P12314); experiment: SPR, Biacore T200, Fc receptor captured by anti-His antibody, antibody injected
recombinant human FcγRI (CD64) (human), sequence (P12314 16-288 limits assumed): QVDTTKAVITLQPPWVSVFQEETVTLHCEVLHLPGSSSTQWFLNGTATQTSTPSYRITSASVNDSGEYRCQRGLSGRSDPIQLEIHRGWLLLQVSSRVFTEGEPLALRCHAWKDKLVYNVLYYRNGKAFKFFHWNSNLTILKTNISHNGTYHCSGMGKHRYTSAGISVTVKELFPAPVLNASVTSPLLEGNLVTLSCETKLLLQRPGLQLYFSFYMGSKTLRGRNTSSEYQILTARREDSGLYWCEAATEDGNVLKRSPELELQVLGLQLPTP

[7] = molecular target: recombinant human FcRn (human) (UniProt P55899); experiment: as above
[8] = molecular target: recombinant human FcγRIIIA (CD16a) V176 (human) (UniProt P08637); experiment: as above
recombinant human FcγRIIIA (CD16a) V176 (human), sequence (P08637 17-208 F176V limits assumed): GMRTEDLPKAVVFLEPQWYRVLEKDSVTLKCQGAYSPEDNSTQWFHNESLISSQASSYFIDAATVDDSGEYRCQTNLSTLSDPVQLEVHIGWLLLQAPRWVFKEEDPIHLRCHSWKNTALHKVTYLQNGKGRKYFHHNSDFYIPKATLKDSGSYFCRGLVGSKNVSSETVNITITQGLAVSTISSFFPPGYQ

[9] = molecular target: recombinant human FcγRIIIA (CD16a) V176 (human) (UniProt P08637); experiment: SPR, Biacore T200, Fc receptor captured by anti-His antibody, antibody injected; IgG4 subtype (hu18), kinetics N/A
[10] = molecular target: T4, recombinant protein of human BTLA …; experiment: FACS, blocking of biotin-labeled hBTLA binding to hHVEM-293F cells; remark: listed apart in the source
Procedure: as §2, with “chimeric” for “humanized”, “intensity (MFI)” for “intensity”, “PrismTM” for “Prism™”
The chimeric antibodies ch12, ch17, ch22 and ch27 can effectively block the binding of human BTLA to HVEM on the cell surface.

[11] = molecular target: T1, hBTLA (human BTLA protein coated on …); experiment: ELISA, hBTLA coated at 0.5 µg/mL, anti-human IgG4-HRP detection; remark: listed apart in the source
Procedure: as §1, with “ability” for “specificity”, “chimeric” for “humanized”, “assayed” for “determined”, “ELISA.” for “conventional ELISA method.”
The chimeric antibodies ch7, ch12, ch17, ch22 and ch27 can specifically bind to hBTLA.

EC50 [1]: 0.0063 µg/mL
binding result (murine BTLA): no binding (tested: 1000 ng/mL)
EC50 [2]: 0.0967 µg/mL
IC50 [3]: 0.143 µg/mL
Kd [4]: 0.186 nM
koff [4]: 0.000116 s⁻¹
kon [4]: 624000 M⁻¹ s⁻¹
EC50 (luciferase reporter, T cell activation) [5]: 0.257 µg/mL
B1: humanized antibody hu17 (antibody, V domains shown)
VH: QVQLVQSGAEVKKPGASVKLSCKASGYNFKHTYAHWVRQAPGQGLEWIGRIDPANGNTKYDPKFQGRATMTADTASNTAYLELSSLRSEDTAVYYCVADHYGSSLLDYWGQGTLVTVSS
VL: DIVMTQTPLSLSVTPGQPASISCKSSQSLLDSDGKTYLNWFQQRPGQSPRRLIYLVSKLDSGVPDRFSGSGSGTDFTLKISRVEAEDVGVYYCWQGTYFPYTFGQGTKLEIK
notes: also called hull [sic]; humanized antibody 17

EC50 [1]: 0.0066 µg/mL
EC50 [2]: 0.0951 µg/mL
IC50 [3]: 0.162 µg/mL
EC50 (luciferase reporter, T cell activation) [5]: 0.29 µg/mL
B2: humanized antibody hu19 (antibody, V domains shown)
VH: B1 VH
VL: B1 VL with I53M, Y54H
notes: It was detected with an anti-human IgG4 secondary antibody

EC50 [1]: 0.0054 µg/mL
Kd [6]: 18.4 nM
koff [6]: 0.00387 s⁻¹
kon [6]: 210000 M⁻¹ s⁻¹
Kd [7]: 138 nM
koff [7]: 0.0708 s⁻¹
kon [7]: 512000 M⁻¹ s⁻¹
fold weaker than the control antibody of the IgG1 subtype (hu18-IgG1) [8]: 400 fold
EC50 [2]: 0.0893 µg/mL
IC50 [3]: 0.172 µg/mL
Kd [4]: 0.136 nM
koff [4]: 8.67e-05 s⁻¹
kon [4]: 639000 M⁻¹ s⁻¹
EC50 (luciferase reporter, T cell activation) [5]: 0.277 µg/mL
Kd [9]: 60200 nM
B3: humanized antibody hu18 (antibody, IgG4, V domains shown)
VH: B1 VH
VL: B1 VL with I2V
notes: also called JS004; recombinant human anti-BTLA antibody

EC50 [2]: 0.0881 µg/mL
IC50 [3]: 0.157 µg/mL
IC50 [10]: 0.0772 µg/mL
EC50 (luciferase reporter, T cell activation) [5]: 0.139 µg/mL
EC50 [11]: 0.0094 µg/mL
B4: chimeric antibody ch12 (antibody, human IgG4, V domains shown)
VH: EVQLQQSGADLVKPGASVKLSCTASGFNFKHTYAHWVKQRPEQGLEWIGRIDPANGNTKYDPKFQGKATMTADTASNAAFLQLSSLTSEDTAVYYCVADHYGSSLLDYWGQGTSLTVSS
VL: EVVMTQTPLTLSVTIGQSASISCKSSQSLLDSDGKTYLNWFLQRPGQSPKRLMHLVSKLDSGVPDRFTGSGSGTDFTLKISGVEAEDLGVYYCWQGTYFPYTFGGGTKLETK
notes: T0010 gives only CDR numbers (HCDR 13-15, LCDR 10-12)

IC50 [10]: 0.0695 µg/mL
EC50 [11]: 0.0052 µg/mL
B5: chimeric antibody ch27 (antibody, human IgG4, V domains shown)
VH: EVHLQQSGTELMKPGASVKLSCTASGLNIRDTYMHWVKQRPEQGLEWIGRIDPANGNTKFDPKFQGKATLTSDTSSNTAYLHFSSLTSEDAAVYYCVSDHYGSSLLDYWGQGTSLTVSS
VL: B4 VL
notes: T0010 gives only CDR numbers (HCDR 28-30, LCDR 10-12)

EC50 [11]: 0.0066 µg/mL
B6: chimeric antibody ch7 (antibody, human IgG4, V domains shown)
VH: EVQLQQSGAELVKPGASVKLSCTVSGFNIKDSYIHWVKQRPEQGLEWIGRIDPANGNTKYDPKFRGKATITADASSNTAALQVSSLTSEDTAVYFCVGDHYGSSLFDYWGHGTTLTVSS
VL: B4 VL
notes: T0010 gives only CDR numbers (HCDR 4-6, LCDR 10-12)

IC50 [10]: 0.0761 µg/mL
EC50 [11]: 0.0298 µg/mL
B7: chimeric antibody ch17 (antibody, human IgG4, V domains shown)
VH: EVQLQQSGADLVKPGASVKLSCTASGFNIKDTYVHWVKQRPEQGLEWIGRIDPANGHTKFDPKFQGKATITADTSSNTANLQISSLTSEDTAVYYCVSDYYGSSLLDYWGQGTTLTVSS
VL: B4 VL
notes: T0010 gives only CDR numbers (HCDR 19-21, LCDR 10-12)

IC50 [10]: 0.0757 µg/mL
EC50 [11]: 0.0373 µg/mL
B8: chimeric antibody ch22 (antibody, human IgG4, V domains shown)
VH: B7 VH with D10E, K13R, A24V, F60Y, F64L, K67T, N80Y, I83L, V97A, S98T
VL: B4 VL
notes: T0010 gives only CDR numbers (HCDR 25-27, LCDR 10-12)
